tested on: MS2 coat protein; assay: apparent KD of MS2 coat protein; higher = weaker reporter binding; settings: Eterna round: R107; input ligand: theophylline 2 mM
Procedure, shortened: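 Titrations with SNAP-549-labelled MS2 coat protein ran in twofold steps from 0.7 or 1.5 nM to 3 µM, each step taking 0.8–1.5 h at the start and 10–20 min toward the end. The targets were designed RNA switches transcribed on-chip from Illumina sequencing clusters, held in 100 mM Tris-HCl pH 7.5, 80 mM KCl, 4 mM MgCl2, without or with constant ligand. Apparent KD was taken per design as the median of normalised cluster binding-curve fits.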

Going from “GGGCCCGGGCGCGAGCCCGGGCCCAUUGAUACCAGUGAAUAUAUACGCCCUUGGCAGCGAAUCCUAACAUGAGGAUCACCCAUGU [5.B]” to “AGCGUUCAGCUUAUACUGGACAAUGGGUGACGAGGACCGGUACGGCCGCCACUCGGGCGCCCGGUUACAUGAGGAUCACCCAUGU [Vedizaus]”, the “apparent KD of MS2 coat protein” value rises from 49.4 nM to 212 nM (4.3-fold).

First: GAAUUUAUUUGAAGGAGCGUCGAAAAUGGGUAAACAUGAGGAUCACCCAUGUAAAGGGAACGACAGGUAGGUCGCAAAUGGAUUC [AstromonsSSArgB#27]
Second: UAUCCACAUGAGGAUCACCCAUGUAUGGAAGGAGCGGUGAAUGAACCAGGUAGGUCGCCAUGGUGAGGAUCAUCUAUGGAUUCGU [Exclusion - Arginine A (Freestyle 9)]
The “apparent KD of MS2 coat protein” value of the first is 3.1-fold higher: 224 nM for the first, 72.2 nM for the second.

First: CCGAACAUGAGGAUCACCCAUGUAUCCGAGCGAGGACCGGUACGGCCGCCACUCGAACUGCACCGGAAAAGGGAAACACCGAUCC [theeternabot_sameState_MS2_Trp_A_9]
Second: AAAUAUUACGGAAGGAGCGUCUCAUAUAUGAAACAUGAGGAUCACCCAUGUGAUAAUGAACGACAGGUAGGUCGCCGAUAAUUGA [JR_AAArginiB_Sub029]
The “apparent KD of MS2 coat protein” value of the first is 4.1-fold higher: 69.3 nM for the first, 16.8 nM for the second.

Going from “CUGCCUGCCUCACAUGAGGAUCACCCAUGUCGAGGACCGGUACGGCCGCCACUCGUCGUCGGUAAUACAGGCAUUGAAUAAUAUA [Esgeusla]” to “ACCUGUACGAAAAGUGCAGGACACGGAAUACGAGGACCGGUACGGCCGCCACUCGGAAACCUGAGGAUCACCCUGGUAAACCGUG [TrypAS 12 #AlternativeMS2 #Zipper #StaticStem]”, the “apparent KD of MS2 coat protein” value rises from 11.9 nM to 31.1 nM (2.6-fold).

In the case of “CACGAAAGAUCGGCCGCCACUCAUGUAGCUUACAUGAGGAUCACCCAUGUAUUUUCUUUCUUUUAGAGGACCGGGAUCGAGCGUG [#02 Same State - Tryptophan B]”, the “apparent KD of MS2 coat protein” value is reported as 43.5 nM.

same assay, conditions: Eterna round: R107; input ligand: tryptophan 2.4 mM

“ACAUGAAGAACAGCGGUGGGCGCGCUCGAUACCAGUACUUUGAUAUACCCUUGGCAGCGACAUGAGGAUCACCCAUGUGAGAUGA [XTheo A #2]” and “UUUUUUAUUAUGGCGUAUCGGAAAACCGAUACCAGUACAGAAAUGUACCCUUGGCAGCGGCGUUUUACAUGAGGAUCACCCAUGU [Ex Theophylline A 5]” are within 1.5-fold of each other in “apparent KD of MS2 coat protein” value: 18.1 nM for the first, 15.4 nM for the second.

“AUAACAUGAGGAUCACCCAUGUAAGCUGAAGGAGCGCUGGAAACAGCAGGUAGGUCGCAGCAUGUUUCCAAUCCUCAUGGAAACA [(M1)-(M2)-(Arg1)-(Arg2)-(A)'-(M)'-(A)''_Design9]” and “UAUCGGAACUGAAGGAGCGAGAUGACAAACAUGAGGAUCACCCAUGUUAUGGGUUGUUAAUCUCAGGUAGGUCGCAGUGGUAGCA [#27 Same State - Arginine B]” are within 1.5-fold of each other in “apparent KD of MS2 coat protein” value: 105 nM for the first, 151 nM for the second.

Compared with “UAUUUGGUGCGCGAGCGUUGGAUAAUUGAUACCAGUGAAGAAGAGCGCCCUUGGCAGCGAAUCCUAACAUGAGGAUCACCCAUGU [5.S]”, “AUACCUAAUGUUACGUUUUCCUUUUCAGAUACCAGACUUUACGUUGUCCCUUGGCAGCUGUAUUACAUGAGGAUCACCCAUGUUG [JR_SSTheophyA_Sub008]” is 2-fold lower in “apparent KD of MS2 coat protein” value: 41.4 nM for the first, 20.4 nM for the second.

“GCUGCCAUACGAAGGAGCGCUGGUGUAGUGCGGCGAACAUGAGGAUCACCCAUGUGGCAGCAGCAGGUAGGUCGCGUAUGGCAGC [EAB #14]” and “UGUGUCGUCUGAAGGAGCGGCCCUUGAUCCUCGUGAGACAUGAGGAUCACCCAUGUCUCGGGCCAGGUAGGUCGCAGGCGGCACA [#25 Exclusion - Arginine B]” are within 1.5-fold of each other in “apparent KD of MS2 coat protein” value: 11 nM for the first, 12.6 nM for the second.

Going from “UUGACAUGAGGAUCACCCAUGUUAGCGGAAGGAGCGCGGUAGUACGCAGGUAGGUCGCCGAGAACAGUGAUAGUUGUUCUCAUGU [X-ArgiA-ms2@4-1]” to “UUUGAGAUAACAGAUACCAGCGUGUUAUAAAACAUGAGGAUCACCCAUGUAGUGAUCAAGCGCCCUUGGCAGCUGGUAUUUUAGG [7.G]”, the “apparent KD of MS2 coat protein” value rises from 46.9 nM to 146 nM (3.1-fold).

Going from “ACAUUUAACUGAAGGAGCGUGAUAUUUACAUGAGGAUCACCCAUGUCUUUCAUGAAUAAUUCACAGGUAGGUCGCAGACUAAUGA [JR_ExcArginiB_Sub007]” to “GCACAAGAUGGAAGGAGCGCUGGGAAAGGUCACAUGAGGAUCACCCAUGUUCUCCUUGCCGAGCAGGUAGGUCGCCAUCUUGUGC [SSAB NP+V+V2 #2]”, the “apparent KD of MS2 coat protein” value falls from 129 nM to 33.9 nM (3.8-fold).

Going from “GGAGGUACCCGAAGGAGCGACAUGAGGAUCACCCAUGUCUCCCGUUAUGGGAGUUCUUUAGGUCAGGUAGGUCGCGGGUACCUCC [#1 Exclusion - Arginine B Attempt #2 (Inspired by Omei)]” to “GGCCUGUGGUGCGAUACCAGCUUGAGUGUACUGGCCAGGUACAUGAGGAUCACCCAUGUAAGCCCUUGGCAGCGCGUCAGAGGCC [#1 Exclusion - Theophylline B Attempt #19 (HarryS)]”, the “apparent KD of MS2 coat protein” value falls from 97 nM to 12.1 nM (8-fold).

Compared with “GGCUGUUGCGAUUUGAAGCGGCAGCGUGAUACCAGAUGUAAGAGCGUCCCUUGGCAGCACGUUUACAUGAGGAUCACCCAUGUCA [Xerema]”, “ACUUGAUACUGAAGGAGCGUCGGAUAAACUCGCACAUGAGGAUCACCCAUGUAUAUGAAUCGACAGGUAGGUCGCAGUAUCGAGU [Arg B SS t6]” is 13-fold lower in “apparent KD of MS2 coat protein” value: 192 nM for the first, 15.3 nM for the second.

“ACUUCAUGAGGUGAUACCAGCCAAUGACAUGAGGACAUGAGGAUCACCCAUGUUUAUGUAGGCCCUUGGCAGCACUGUAACAUGA [Same State Theophylline B 4]” and “AUCCACAGCCGAAGGAGCGCUAGAAGAUGACAUGAGGAUCACCCAUGUGUGUGAUGUGGCUAGCAGGUAGGUCGCGGAGUGGAUU [Exclusion - Arginine B (Freestyle 12)]” are within 1.5-fold of each other in “apparent KD of MS2 coat protein” value: 19.7 nM for the first, 24.7 nM for the second.

“CGAAUACUGAGUGAUACCAGUGAAAGAUAACUGUAUACACAUGAGGAUCACCCAUGUACACACCCUUGGCAGCACACUAGAUCGA [Same State Theophylline B GF 2]” and “GGGCCCGGGCGCGAGCCCGGGCCCAUUGAUACCAGUGAAUAUAUACGCCCUUGGCAGCGAAUCCUAACAUGAGGAUCACCCAUGU [5.B]” are within 1.5-fold of each other in “apparent KD of MS2 coat protein” value: 29.9 nM for the first, 38.2 nM for the second.

First: AGCGUUCAGCUUAUACUGGACAAUGGGUGACGAGGACCGGUACGGCCGCCACUCGGGCGCCCGGUUACAUGAGGAUCACCCAUGU [Vedizaus]
Second: GAAUUUAUUUGAAGGAGCGUCGAAAAUGGGUAAACAUGAGGAUCACCCAUGUAAAGGGAACGACAGGUAGGUCGCAAAUGGAUUC [AstromonsSSArgB#27]
The “apparent KD of MS2 coat protein” value of the first is 9.2-fold lower: 20.5 nM for the first, 188 nM for the second.

Compared with “UAUCCACAUGAGGAUCACCCAUGUAUGGAAGGAGCGGUGAAUGAACCAGGUAGGUCGCCAUGGUGAGGAUCAUCUAUGGAUUCGU [Exclusion - Arginine A (Freestyle 9)]”, “UACAUGAGGAUCACCCAUGUAUAGAGGGAUACCAGUGUCAGUGAGCACCCUUGGCAGCCCGCGAACAAUGGGUGCGCUAAAUAGU [#19 Exclusion-TheophyllineA]” is 2.7-fold lower in “apparent KD of MS2 coat protein” value: 86.7 nM for the first, 32.4 nM for the second.

Going from “GAUGAACUAUUCGAUACCAGACUACAUGAGGAUCACCCAUGUGUGUCAAUUUCUCAGUCAGUCCCUUGGCAGCGAAUAGUUUAUC [#26 Exclusion-TheophyllineB]” to “GCGAUACGUACUGAUACCAGAGACAUGAGGAUCACCCAUGUCCCAUGAUCAUACCUCAGACUCCCUUGGCAGCAGGAUAAGUGAG [Exclusion Theophylline B GF2]”, the “apparent KD of MS2 coat protein” value falls from 26.3 nM to 12 nM (2.2-fold).

First: AAAUAUUACGGAAGGAGCGUCUCAUAUAUGAAACAUGAGGAUCACCCAUGUGAUAAUGAACGACAGGUAGGUCGCCGAUAAUUGA [JR_AAArginiB_Sub029]
Second: ACCUGUACGAAAAGUGCAGGACACGGAAUACGAGGACCGGUACGGCCGCCACUCGGAAACCUGAGGAUCACCCUGGUAAACCGUG [TrypAS 12 #AlternativeMS2 #Zipper #StaticStem]
The “apparent KD of MS2 coat protein” value of the first is 1.5-fold lower: 15.1 nM for the first, 23.3 nM for the second.
